# Laboratory results: patent US20110009597A1, “RECOMBINANT GANODERMA LUCIDIUM IMMUNOMODULATORY PROTEIN (rLZ-8) AND USES THEREOF” (priority 2008, published 2011)
# B1: rLZ-8: Recombinant Ganoderma Lucidum Immune Regulatory Protein expressed in Pichia pastoris (protein, UniProt P14945 2-111, looked up)
# Immunomodulatory protein Ling …: SDTALIFRLAWDVKKLSFDYTPNWGRGNPNNFIDTVTFPKVLTDKAYTYRVAVSGRNLGVKPSYAVESDGSQKVNFLEYNSGYGIADTNTIQVFVVDPDTNNDFIIAQWN
# Legend:
# [1] = tested on: human erythrocyte; assay type: cell-based
# Protocol: rLZ-8 prepares 5% of glucose solution into the preparation of 1 mg·ml^−1; blood cell suspension preparation: human blood 4 ml, 1000 r/min centrifugal 10 min, clears supernatant. […] Prepare the obtained erythrocyte with 5% glucose solution into 2% suspension for experiment.
# Get 28 clean test tubes and number them, No. 1-5 for rLZ-8 drug group, No.6 for negative control group (5% glucose solution), No. 7 for positive control tube (distilled water), and a total of 4 parallel comparison tubes. By supplying 2% erythrocyte suspension, 5% glucose or distilled water in turn, shaking, put them into incubators 37° C.±0.5° C. immediately for incubation. Observe them every 15 min, 1 h after observe them once for 3 hours. Finishing the observation, put all the solution from the tubes into centrifugal drying tubes, 1500 r, 25 min. Clear the supernatant, read the blank distilled water tube for OD value to calculate the rate of hemolysis.
# [2] = tested on: mouse peritoneal S180 tumor cells; assay: S180 ascites tumor inhibition experiment; assay type: in vivo, Mice; details: rLZ-8 0.25-1 mg·kg^−1 tail venous injection, 10 days
# Protocol: (§1) Treatment after 24 h of vaccination. […] Daily weighing, observe the weight changes of mice, drawing weight growth curves.
# [3] = tested on: NB4; assay: Annexin V-FITC flow cytometry, apoptosis of NB4; assay type: cell-based; details: Annexin V/PI
# Protocol: (§2) FACS Calibur flow cytometry, U.S. Becton-Dickinson.Coompany. NB4, HL-60. rLZ-8 is prepared with IMDM culture medium containing 2% FCS into the preparation of 0.1 μg·ml^−1, 0.5 μg·ml^−1, 2.5 μg·ml^−1, arsenic trioxide (As2O3) 0.5 μg·ml^−1 AnnexinV-FITC kit: combining buffer solution 4×; Propidium iodide solution (PI), 20 μg·ml−1, 0.2 ml; recombinant human Annexin V/FITC, 0.1 ml.
# (§3) Establish NB4 normal control group, positive drug group (As2O3 0.5 μg·ml^−1), protein low-dose group (0.1 μg·ml^−1), medium-dose group (0.5 μg·ml^−1), high-dose group, (2.5 μg·ml^−1); establish HL-60 normal control group, protein low-dose group (0.1 μg·ml^−1), medium-dose group (0.5 μg·ml^−1), high-dose group, (2.5 μg·ml^−1).
# (§4) Mix NB4 and HL-60 cell into 24-orifice plate respectively, 1 ml/hole supply rLZ-8 in different concentrates, set 3-orifice multipunches for each group. Put them in 37° C., 5% CO2 incubator for 24 h, collect the cells of each concentrate, washes the cells twice with pre-cooled PBS 4° C., with 250 μl binding buffer solution re-suspending cells and regulates the cell density to 1×10^6/ml, taking out 100 μl to 5 ml streaming tube, and add 5 μl Annexin V/FITC and 10 μl 20 μg·ml^−1 PI solution, after mixing put it in room temperature and lucifuged hatching 15 min, add 400 μl PBS by flow cytometry analysis.
# [4] = tested on: systemic allergic reaction caused by BSA; assay: Systemic allergic reaction in mice caused by BSA; details: for Death number/total / Sensitization number/total: sensitization BSA (i.p.)
# Protocol: Prepare rLZ-8 700 μg/ml^−1 with saline and Aluminium hydroxide with PBS buffer. Male mice, 15 vial, were divided into 4 groups: two rLZ-8 dosage groups, positive group, normal control group. […] Positive reaction standard: tic or death. Negative reaction standard: normal.
# [5] = tested on: WBC; assay: Prevention of radiation leucopenia model of mice, WBC; assay type: in vivo; design: unit not given here; details: for WBC, 5th day (rLZ-8): 5th day of administration before radiation; for WBC, 5th day / WBC, 7th day: after 7.5 Gy γ-ray
# Protocol: rLZ-8 preparation of sterile saline. Divide them into 5 μg·kg^−1, 2.5 μg·kg^−1, 1.25 μg·kg^−1, 0.62 μg·kg^−1 dose groups. 0.2 ml/vial.
# Genlei™ Scimax™ [Recombinant human granulocyte colony-stimulating factor injection (rhG-CSF)], production lot: 20060403; 150 μg/vial is prepared with sterile normal saline into the preparation of 3.2 μg·kg^−1, 0.2 ml/vial.
# The mice were irradiated by 7.5 Gy γ-ray (180 mV, 15 mA) and then divided into seven groups (n=10): (A) negative control; (B) 5 μg·kg−1 dose; (C) 2.5 μg·kg−1 dose; (D) 1.25 μg·kg−1 dose; (E) 0.62 μg·kg−1 dose; (F) positive control (Genlei™ Scimax™); (G) model group. Before modeling 5 days, mice in each group were administered with Genlei™ Scimax™ and rLZ-8 for 5 days, on the 5th day, mice were radiated, for 5 days, and on the 7th day, drew blood from tail, tested the number of WBC, weight spleen, calculated index of spleen.
# [6] = tested on: Human Promyelocytic Leukemia NB4 Cells; assay: Killing effect of rLZ-8 on NB4 cells (MTT, OD570nm); assay type: cell-based
# Protocol: After filtration and degerming, we prepared 8 concentrations using IMDM culture medium which are respectively 0.78 μg·ml^−1, 1.56 μg·ml^−1, 3.125 μg·ml^−1, 6.25 μg·ml^−1, 12.5 μg·ml^−1, 25 μg·ml^−1, 50 μg·ml^−1, 100 μg·ml^−1.
# On 96-orifice culture medium plate, the pilot orifice plus NB4 tumor cells 0.1 ml and rLZ-8 0.1 ml, rLZ-8 concentrates from low to high; negative control group plus NB4 tumor cells and culture medium of 0.1 ml respectively; positive drug control group arsenic trioxide As2O3; make six-aperture multipunches for each group. Placing in 37° C., 5% CO2 incubator 48 h, adding MTT15 μl (5 mg ml^−1) prior to the termination of 4 h, after the termination of cell culture by adding 100 μl 0.1 mol L^−1 hydrochloric acid isopropyl alcohol, testing on the enzyme-linked immunosorbent OD570nm values.
# [7] = tested on: mouse peritoneal H22 tumor cells; assay: H22 ascites tumor inhibition experiment; assay type: in vivo, Mice
# Protocol: Mouse hepatoma cell strain H22, offered by our laboratory.
# as §1
# [8] = tested on: HL-60; assay: Annexin V-FITC flow cytometry, apoptosis of HL-60; assay type: cell-based; details: Annexin V/PI
# Protocol: as §2, §3, §4
# [9] = rLZ-8 dose 2, shock BSA-rLZ-8 (i.v.)
molecule,measurement,setting,value
B1,hmolytic rate,[1],< 5%
same,growth of peritoneal S180 tumor cells (body weight curve),[2],inhibited mouse peritoneal S180 tumor cells growth
same,Apoptosis rate,"[3]; NB4, rLZ-8 0.1 μg·ml−1, 24 h",21.0%
same,Apoptosis rate,"[3]; NB4, rLZ-8 0.5 μg·ml−1, 24 h",22.3%
same,Apoptosis rate,"[3]; NB4, rLZ-8 2.5 μg·ml−1, 24 h",34.0%
same,systemic allergic reaction caused by BSA (in words),"[4]; mouse, in vivo",could inhibit systemic allergic reaction
same,Death number/total,"[4]; rLZ-8 dose 1, shock BSA (i.v.)",0/10
same,Sensitization number/total,"[4]; rLZ-8 dose 1, shock BSA (i.v.)",5/10
same,Death number/total,[4]; [9],0/10
same,Sensitization number/total,[4]; [9],9/10
same,"WBC, 5th day (rLZ-8)",[5]; rLZ-8 0.62 μg·kg^−1,10.7 ± 0.45
same,"WBC, 5th day",[5]; rLZ-8 0.62 μg·kg^−1,0.16 ± 0.31
same,"WBC, 7th day",[5]; rLZ-8 0.62 μg·kg^−1,0.40 ± 0.12
same,"WBC, 5th day (rLZ-8)",[5]; rLZ-8 1.25 μg·kg^−1,12.5 ± 0.45
same,"WBC, 5th day",[5]; rLZ-8 1.25 μg·kg^−1,0.25 ± 0.11
same,"WBC, 7th day",[5]; rLZ-8 1.25 μg·kg^−1,0.46 ± 0.11
same,"WBC, 5th day (rLZ-8)",[5]; rLZ-8 2.5 μg·kg^−1,12.8 ± 0.54
same,"WBC, 5th day",[5]; rLZ-8 2.5 μg·kg^−1,0.32 ± 0.15
same,"WBC, 7th day",[5]; rLZ-8 2.5 μg·kg^−1,0.45 ± 0.20
same,"WBC, 5th day (rLZ-8)",[5]; rLZ-8 5 μg·kg^−1,19.5 ± 0.32
same,"WBC, 5th day",[5]; rLZ-8 5 μg·kg^−1,0.32 ± 0.18
same,"WBC, 7th day",[5]; rLZ-8 5 μg·kg^−1,0.53 ± 0.35
same,lethal effect in vitro on NB4 tumor cells (in words),[6]; 0.78-100 μg·ml^−1,strong lethal effect
same,Growth inhibition rate (%),"[6]; rLZ-8 0.78 μg ml^−1, 48 h",39%
same,OD570 nm,"[6]; rLZ-8 0.78 μg ml^−1, 48 h",0.71 ± 0.03
same,Growth inhibition rate (%),"[6]; rLZ-8 1.56 μg ml^−1, 48 h",44%
same,OD570 nm,"[6]; rLZ-8 1.56 μg ml^−1, 48 h",0.65 ± 0.05
same,Growth inhibition rate (%),"[6]; rLZ-8 3.125 μg ml^−1, 48 h",54%
same,OD570 nm,"[6]; rLZ-8 3.125 μg ml^−1, 48 h",0.53 ± 0.04
same,Growth inhibition rate (%),"[6]; rLZ-8 6.25 μg ml^−1, 48 h",61%
same,OD570 nm,"[6]; rLZ-8 6.25 μg ml^−1, 48 h",0.45 ± 0.02
same,Growth inhibition rate (%),"[6]; rLZ-8 12.5 μg ml^−1, 48 h",74%
same,OD570 nm,"[6]; rLZ-8 12.5 μg ml^−1, 48 h",0.30 ± 0.04
same,Growth inhibition rate (%),"[6]; rLZ-8 25 μg ml^−1, 48 h",81%
same,OD570 nm,"[6]; rLZ-8 25 μg ml^−1, 48 h",0.22 ± 0.01
same,Growth inhibition rate (%),"[6]; rLZ-8 50 μg ml^−1, 48 h",91%
same,OD570 nm,"[6]; rLZ-8 50 μg ml^−1, 48 h",0.11 ± 0.01
same,Growth inhibition rate (%),"[6]; rLZ-8 100 μg ml^−1, 48 h",93%
same,OD570 nm,"[6]; rLZ-8 100 μg ml^−1, 48 h",0.08 ± 0.01
same,growth of peritoneal H22 tumor cells (body weight curve),"[7]; rLZ-8 0.25-1 mg·kg^−1 tail venous injection, 10 days",inhibited the mouse peritoneal H22 tumor cells growth
same,survival of H22 ascites mice,[7]; rLZ-8 groups vs negative control group,survive longer than the negative control group
same,Apoptosis rate,"[8]; HL-60, rLZ-8 0.1 μg·ml−1, 24 h",30.5%
same,Apoptosis rate,"[8]; HL-60, rLZ-8 0.5 μg·ml−1, 24 h",40.7%
same,Apoptosis rate,"[8]; HL-60, rLZ-8 2.5 μg·ml−1, 24 h",47.7%
